Our source for the pKd values is publication PMC9482650, “Quantitative fragmentomics allow affinity mapping of interactomes” (Nature Communications, 2022).

Among the targets are DLG1_2, Q12959; DLG4_2, P78352; FRMPD2_3, Q68DX3; Inadl_3, Q8NI35; Inadl_5, Q8NI35; LIMK2, P53671; PDLIM1, O00151; TJP1_3, Q07157.
Experiment in all cases: holdup assay
Holding throughout (parameters): key: below the threshold = too weak to quantify, mostly under pKd 3.1 to 4
What all share (settings): plain residues with an end cap or a label only (N-terminal biotin on a linker: ado-ado)

The target of the next test is T1, APBA2_2, Q99767.
T1 sequence (Q99767 654-744, limits assumed, looked up): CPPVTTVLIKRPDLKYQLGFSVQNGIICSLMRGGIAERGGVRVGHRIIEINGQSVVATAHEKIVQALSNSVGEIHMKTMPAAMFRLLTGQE

For another test, the target named is T2, ARHGAP21, Q5T5U3.
T2 sequence (Q5T5U3 45-169, limits assumed, looked up): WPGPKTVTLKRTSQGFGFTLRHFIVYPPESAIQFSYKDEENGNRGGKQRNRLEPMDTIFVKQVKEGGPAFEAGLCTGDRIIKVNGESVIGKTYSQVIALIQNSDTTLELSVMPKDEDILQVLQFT

For the next test, the target named is T3, DLG3_2, Q92796.
T3 sequence (Q92796 221-321, limits assumed, looked up): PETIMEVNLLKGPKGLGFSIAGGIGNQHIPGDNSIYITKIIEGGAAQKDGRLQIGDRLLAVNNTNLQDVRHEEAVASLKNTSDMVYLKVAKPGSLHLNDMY

Another test addresses T4, DVL3, Q92997.
T4 sequence (Q92997 244-331, limits assumed, looked up): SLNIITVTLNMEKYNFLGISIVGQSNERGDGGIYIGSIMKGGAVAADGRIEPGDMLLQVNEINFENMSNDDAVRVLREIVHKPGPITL

The target in another test is T5, HTRA4, P83105.
T5 sequence (P83105 378-476, limits assumed, looked up): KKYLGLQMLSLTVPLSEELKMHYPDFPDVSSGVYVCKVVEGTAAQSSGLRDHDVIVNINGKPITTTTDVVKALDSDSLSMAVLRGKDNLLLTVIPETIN

The next test addresses T6, LNX2_3, Q8N448.
T6 sequence (Q8N448 463-564, limits assumed, looked up): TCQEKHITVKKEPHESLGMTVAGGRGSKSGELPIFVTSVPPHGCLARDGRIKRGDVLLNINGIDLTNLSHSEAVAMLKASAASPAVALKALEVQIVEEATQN

A further test has as its target T7, MPP6, Q9NZW5.
T7 sequence (Q9NZW5 125-219, limits assumed, looked up): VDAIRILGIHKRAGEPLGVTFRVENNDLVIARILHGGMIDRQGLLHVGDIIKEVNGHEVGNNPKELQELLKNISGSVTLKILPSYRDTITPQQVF

The next test deals with T8, NHERF3_1, Q5T2W1.
T8 sequence (Q5T2W1 4-100, limits assumed, looked up): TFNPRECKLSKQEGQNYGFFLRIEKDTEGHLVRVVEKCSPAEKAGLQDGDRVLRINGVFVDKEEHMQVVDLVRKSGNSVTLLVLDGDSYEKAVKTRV

The next test has as its target T9, PDZD2_2, O15018.
T9 sequence (O15018 329-429, limits assumed, looked up): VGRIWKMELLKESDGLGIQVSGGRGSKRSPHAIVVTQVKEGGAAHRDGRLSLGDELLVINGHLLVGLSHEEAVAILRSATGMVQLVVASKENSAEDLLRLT

In another test the target is T10, RADIL, Q96JH8.
T10 sequence (Q96JH8 971-1071, limits assumed, looked up): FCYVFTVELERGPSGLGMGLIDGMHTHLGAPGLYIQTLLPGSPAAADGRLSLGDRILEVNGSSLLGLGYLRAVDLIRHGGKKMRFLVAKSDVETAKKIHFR

For another test, the target named is T11, RAPGEF6, Q8TEU7.
T11 sequence (Q8TEU7 525-625, limits assumed, looked up): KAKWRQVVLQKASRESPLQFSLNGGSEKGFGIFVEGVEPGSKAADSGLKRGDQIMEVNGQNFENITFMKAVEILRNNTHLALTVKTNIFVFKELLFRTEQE

A further test concerns the target T12, SNTB1, Q13884.
T12 sequence (Q13884 107-205, limits assumed, looked up): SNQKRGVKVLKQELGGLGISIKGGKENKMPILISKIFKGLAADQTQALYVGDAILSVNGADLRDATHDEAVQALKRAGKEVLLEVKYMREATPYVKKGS

For another test, the target named is T13, SNTG1, Q9NSN8.
T13 sequence (Q9NSN8 52-150, limits assumed, looked up): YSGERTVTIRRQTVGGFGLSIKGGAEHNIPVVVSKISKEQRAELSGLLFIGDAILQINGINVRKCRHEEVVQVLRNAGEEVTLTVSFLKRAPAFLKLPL

The target of the next test is T14, TIAM2, Q8IVF5.
T14 sequence (Q8IVF5 885-986, limits assumed, looked up): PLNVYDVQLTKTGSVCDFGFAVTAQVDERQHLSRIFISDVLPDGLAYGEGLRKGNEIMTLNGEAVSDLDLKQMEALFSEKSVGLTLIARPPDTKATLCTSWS

Sequence of Inadl_3, Q8NI35 (Q8NI35 359-469): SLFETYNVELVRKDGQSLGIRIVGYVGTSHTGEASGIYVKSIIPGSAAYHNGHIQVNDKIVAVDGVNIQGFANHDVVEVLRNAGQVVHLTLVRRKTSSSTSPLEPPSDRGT
Sequence of LIMK2, P53671 (P53671 143-248): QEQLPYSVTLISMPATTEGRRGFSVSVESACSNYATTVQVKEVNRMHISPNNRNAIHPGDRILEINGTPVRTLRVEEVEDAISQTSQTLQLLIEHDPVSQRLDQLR
Sequence of TJP1_3, Q07157 (Q07157 416-512): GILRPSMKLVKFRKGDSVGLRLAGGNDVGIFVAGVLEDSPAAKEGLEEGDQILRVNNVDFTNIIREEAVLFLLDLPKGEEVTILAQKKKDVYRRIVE
Sequence of DLG1_2, Q12959 (Q12959 314-412): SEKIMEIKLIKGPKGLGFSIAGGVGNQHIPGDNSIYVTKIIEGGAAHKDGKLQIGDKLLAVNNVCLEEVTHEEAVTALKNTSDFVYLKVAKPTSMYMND
Sequence of Inadl_5, Q8NI35 (Q8NI35 673-780): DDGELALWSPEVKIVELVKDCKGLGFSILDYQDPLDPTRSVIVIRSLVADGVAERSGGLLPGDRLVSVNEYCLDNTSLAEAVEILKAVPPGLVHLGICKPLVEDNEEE
Sequence of PDLIM1, O00151 (O00151 1-87): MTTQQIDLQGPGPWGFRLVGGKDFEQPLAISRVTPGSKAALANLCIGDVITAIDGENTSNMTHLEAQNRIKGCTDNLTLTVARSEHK
Sequence of DLG4_2, P78352 (P78352 155-259): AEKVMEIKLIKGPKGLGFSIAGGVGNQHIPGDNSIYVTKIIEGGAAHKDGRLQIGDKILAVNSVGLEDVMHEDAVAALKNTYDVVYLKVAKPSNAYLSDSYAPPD
Sequence of FRMPD2_3, Q68DX3 (Q68DX3 1073-1166): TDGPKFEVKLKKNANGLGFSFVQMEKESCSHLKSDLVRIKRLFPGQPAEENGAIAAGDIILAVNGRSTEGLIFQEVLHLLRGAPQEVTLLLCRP

For KAEEKPPSKV [SCN4B, Q8IWT1], the pKd (usually the Kd on a negative log10 scale, so that one unit is a factor of ten) with APBA2_2, Q99767 is “below the threshold”; with ARHGAP21, Q5T5U3, “below the threshold”; with DLG1_2, Q12959, 3.52; with DLG3_2, Q92796, “below the threshold”; with DLG4_2, P78352, “below the threshold”; in the test with DVL3, Q92997 it was “below the threshold”. In addition, the negative logarithm of the Kd (pKd) result is “below the threshold” with FRMPD2_3, Q68DX3; 3.93 with HTRA4, P83105; “below the threshold” in the test with Inadl_3, Q8NI35; “below the threshold” with Inadl_5, Q8NI35; “below the threshold” in the test with LIMK2, P53671; “below the threshold” in the test with LNX2_3, Q8N448. Besides, the pKd result with MPP6, Q9NZW5 was “below the threshold”; with NHERF3_1, Q5T2W1, “below the threshold”; with PDLIM1, O00151 it was “below the threshold”; in the test with PDZD2_2, O15018 it was 3.95; with RADIL, Q96JH8, “below the threshold”; with RAPGEF6, Q8TEU7, “below the threshold”. The pKd result with SNTB1, Q13884 is reported as “below the threshold”; with SNTG1, Q9NSN8, “below the threshold”; in the test with TIAM2, Q8IVF5, “below the threshold”; with TJP1_3, Q07157, “below the threshold”.

NTALVESEDL [PALLS, Q8WX93;Q8WX93-1]: the pKd result is “below the threshold” with APBA2_2, Q99767; “below the threshold” in the test with ARHGAP21, Q5T5U3; “below the threshold” with DLG1_2, Q12959; “below the threshold” with DLG3_2, Q92796; “below the threshold” with DLG4_2, P78352; “below the threshold” with DVL3, Q92997. For the same molecule, the negative-log Kd (pKd) entry with FRMPD2_3, Q68DX3 is listed as “below the threshold”; with HTRA4, P83105, “below the threshold”; with Inadl_3, Q8NI35, “below the threshold”; with Inadl_5, Q8NI35, “below the threshold”; with LIMK2, P53671, “below the threshold”; with LNX2_3, Q8N448, “below the threshold”. The pKd entry in the test with MPP6, Q9NZW5 was “below the threshold”; with NHERF3_1, Q5T2W1, “below the threshold”; with PDLIM1, O00151, 5.47; in the test with PDZD2_2, O15018, “below the threshold”; with RADIL, Q96JH8, “below the threshold”; with RAPGEF6, Q8TEU7 it was “below the threshold”. Moreover, the pKd result with SNTB1, Q13884 was “below the threshold”; with SNTG1, Q9NSN8 it was “below the threshold”; with TIAM2, Q8IVF5 it was “below the threshold”; with TJP1_3, Q07157 it was “below the threshold”.

Turning to HDDYFYHDEL [RCN2, Q14257], the pKd result with APBA2_2, Q99767 was “below the threshold”; with ARHGAP21, Q5T5U3 it was 4.17; in the test with DLG1_2, Q12959 it was “below the threshold”; with DLG3_2, Q92796, “below the threshold”; with DLG4_2, P78352, “below the threshold”; in the test with DVL3, Q92997 it was “below the threshold”. Moreover, the negative logarithm of the Kd (pKd) entry is “below the threshold” with FRMPD2_3, Q68DX3; “below the threshold” in the test with HTRA4, P83105; 3.85 with Inadl_3, Q8NI35; “below the threshold” with Inadl_5, Q8NI35; “below the threshold” in the test with LIMK2, P53671; “below the threshold” with LNX2_3, Q8N448. Further, the pKd is 3.74 in the test with MPP6, Q9NZW5; 4.34 with NHERF3_1, Q5T2W1; 3.83 in the test with PDLIM1, O00151; “below the threshold” in the test with PDZD2_2, O15018; 3.5 in the test with RADIL, Q96JH8; “below the threshold” with RAPGEF6, Q8TEU7. Besides, the pKd result with SNTB1, Q13884 was “below the threshold”; with SNTG1, Q9NSN8, “below the threshold”; in the test with TIAM2, Q8IVF5 it was “below the threshold”; with TJP1_3, Q07157 it was “below the threshold”.

THREVKFTSL [CD46, P15529]: the pKd entry in the test with APBA2_2, Q99767 is “below the threshold”; in the test with ARHGAP21, Q5T5U3, “below the threshold”; with DLG1_2, Q12959, 3.88; in the test with DLG3_2, Q92796, 4.23; with DLG4_2, P78352 it was 3.7; in the test with DVL3, Q92997, “below the threshold”. In addition, the pKd entry is “below the threshold” in the test with FRMPD2_3, Q68DX3; “below the threshold” with HTRA4, P83105; “below the threshold” in the test with Inadl_3, Q8NI35; “below the threshold” in the test with Inadl_5, Q8NI35; “below the threshold” with LIMK2, P53671; “below the threshold” with LNX2_3, Q8N448. Moreover, the pKd result in the test with MPP6, Q9NZW5 is “below the threshold”; with NHERF3_1, Q5T2W1, 5.18; with PDLIM1, O00151 it was “below the threshold”; in the test with PDZD2_2, O15018 it was 4.26; with RADIL, Q96JH8 it was 3.49; with RAPGEF6, Q8TEU7, “below the threshold”. Further, the pKd in the test with SNTB1, Q13884 is 4.86; in the test with SNTG1, Q9NSN8, “below the threshold”; with TIAM2, Q8IVF5, 4.06; in the test with TJP1_3, Q07157 it was “below the threshold”.

QKNKDREYYV [NRXN3, Q9HDB5]: the pKd entry was “below the threshold” in the test with APBA2_2, Q99767; 4.2 in the test with ARHGAP21, Q5T5U3; “below the threshold” with DLG1_2, Q12959; 3.65 in the test with DLG3_2, Q92796; 3.67 with DLG4_2, P78352; 4.02 with DVL3, Q92997. Also, the pKd with FRMPD2_3, Q68DX3 is 4.38; with HTRA4, P83105 it was “below the threshold”; in the test with Inadl_3, Q8NI35, 4.14; with Inadl_5, Q8NI35 it was 4.64; in the test with LIMK2, P53671, “below the threshold”; with LNX2_3, Q8N448, “below the threshold”. Also, the pKd with MPP6, Q9NZW5 is 4.25; with NHERF3_1, Q5T2W1 it was 4.61; with PDLIM1, O00151, “below the threshold”; with PDZD2_2, O15018 it was 4.56; with RADIL, Q96JH8, 4.7; with RAPGEF6, Q8TEU7, “below the threshold”. Besides, the pKd with SNTB1, Q13884 is 3.65; in the test with SNTG1, Q9NSN8, 3.58; in the test with TIAM2, Q8IVF5 it was 4.41; with TJP1_3, Q07157, “below the threshold”.
